Data as given in article PMC10783504, “Structural analysis of PLD3 reveals insights into the mechanism of lysosomal 5′ exonuclease-mediated nucleic acid degradation” (Nucleic Acids Research, 2023).

What was measured:
[1] = target: the molecule itself; assay: AUC; sedimentation velocity, 40000 rpm, 20°C, 8 or 16 μM hPLD3, absorbance at 280 or 290 nm
[2] = target: the molecule itself; assay: SEC; HiLoad 16/600 Superdex 200 pg column, HEPES buffer pH 7.5, calibrated with LMW and HMW protein standards
[3] = target: T1, hPLD3 luminal domain (Homo sapiens, UniProt Q8IV08 61-490); assay: ITC; N = 1.0; dH -12 kcal/mol; no phosphorothioate, cleavable substrate; ITC: 20 mM HEPES pH 7.5, 150 mM NaCl, 10 C; 380 uM ssDNA in syringe, 10 uM hPLD3 in cell. Crystals: 15% PEG 4000, 0.02 M NaI, 0.9 M ammonium sulfate, 15% glycerol; conditions: protein: recombinant; tags: C-terminal 6xHis; chain copies: 2; single strand
T1 sequence: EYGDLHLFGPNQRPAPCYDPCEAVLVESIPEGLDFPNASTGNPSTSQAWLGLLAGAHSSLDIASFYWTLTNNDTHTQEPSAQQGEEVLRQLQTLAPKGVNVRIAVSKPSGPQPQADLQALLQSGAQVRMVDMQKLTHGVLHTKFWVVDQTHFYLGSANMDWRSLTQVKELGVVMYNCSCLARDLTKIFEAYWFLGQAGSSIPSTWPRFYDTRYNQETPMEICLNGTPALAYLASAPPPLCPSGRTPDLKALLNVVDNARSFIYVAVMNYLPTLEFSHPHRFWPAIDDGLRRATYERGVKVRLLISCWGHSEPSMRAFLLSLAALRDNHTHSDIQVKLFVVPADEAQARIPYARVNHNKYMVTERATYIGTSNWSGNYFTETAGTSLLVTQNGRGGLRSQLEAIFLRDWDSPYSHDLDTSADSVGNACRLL

[4] = target: T1, hPLD3 luminal domain; assay: ITC; N = 0.9; dH 30 kcal/mol; ITC: 20 mM HEPES pH 7.5, 150 mM NaCl, 10 C; 380 uM ssDNA in syringe, 10 uM hPLD3 in cell. Crystals: 15% PEG 4000, 0.02 M NaI, 0.9 M ammonium sulfate, 15% glycerol; conditions: protein: recombinant; tags: C-terminal 6xHis; chain copies: 2; single strand
[5] = target: T1, hPLD3 luminal domain; assay: ITC; ITC: 20 mM HEPES pH 7.5, 150 mM NaCl, 10 C; 380 uM ssDNA in syringe, 10 uM hPLD3 in cell. Crystals: 15% PEG 4000, 0.02 M NaI, 0.9 M ammonium sulfate, 15% glycerol; conditions: protein: recombinant; tags: C-terminal 6xHis; chain copies: 2; single strand

B1: luminal domain (residues 61–490) of human PLD3 (domain or fragment, UniProt Q8IV08 61-490, looked up)
chain: T1 sequence
modifications: N-glycosylated (Man5GlcNAc2, high-mannose type) at Asn97, Asn132, Asn236, Asn284 and Asn387, at least partially; Cys300 oxidized to cysteine sulfonic acid (OCS)
notes: human PLD3 (phospholipase D3), luminal domain, residues 61-490, starting directly after the transmembrane segment; In the crystals residues 72–98 and 101–490 are seen, 61–71 and 99–100 are not visible; also called hPLD3; hPLD3_(61-490); source: HEK293S GnTI- stably transfected monoclonal cell line, secreted into culture supernatant, purified (NiNTA, SEC)
[1]
  stoichiometry N: 4
[2]
  stoichiometry N: 2

## TTCATG (ssDNA)
[3]
  Kd: 20 ± 2 µM

## TTCATG (ssDNA, phosphorothioate between nt 1 and 2 (mixed Rp/Sp)) [T*TCATG]
[4]
  Kd: 28 ± 4 µM

B2: T*T*C*A*T*G* (ssDNA)
DNA: TTCATG
modifications: phosphorothioate at all linkages (mixed Rp/Sp); printed with * also after the last G
[5]
  binding result: no binding
